# Tested on: Plant OsNAM12.1 (SUMOylated, from rice root protein extract; genotype of the sample not stated)
substance,measurement,value
deSUMOylating protease Ulp1,"deSUMOylation by protease treatment, immunoblot",putative di-SUMOylated (-53 kD; 29+12+12) rather than the putative mono-SUMOylated (-41 kD; 29+12) OsNAM12.1 was preferentially deSUMOylated

# Reference: patent publication US20160251675
